{"source": "patent US10809222B2", "about": "“Opioid detection based on high quality graphene transistor arrays and a synthetic mu receptor” (priority 2013, dated 2020)", "key": {"[1]": {"assay": "Secondary structure content by circular dichroism", "format": "physicochemical", "from_the_text": "The CD spectra indicated predominantly helical structures with a helical secondary structure content of ˜48% (estimations based on the molar ellipticity over the range 205 to 260 nm). The comparison of the helical content with that of the native human MUR expressed in yeast system in the presence of high concentration of detergent (0.1% SDS) is presented in Table 1."}, "mu-receptor protein": {"tested_on": "mu-receptor protein", "assay": "Raman spectroscopy optical readout of ligand binding on mu-receptor-protein-functionalized GFET", "parameters": "species or system human", "from_the_text": "Raman spectroscopy of the graphene layer in a functionalized GFET was used as an optical readout method to detect ligand binding. […]\nA similar shift is seen in the 2D peak in FIG. 8c. No shifts were seen after exposure to pure buffer as a negative control, in FIGS. 8d and 8e."}, "mu receptor protein": {"biological_target": "mu receptor protein (Homo sapiens, UniProt P35372)", "sequence (P35372 whole entry, looked up)": "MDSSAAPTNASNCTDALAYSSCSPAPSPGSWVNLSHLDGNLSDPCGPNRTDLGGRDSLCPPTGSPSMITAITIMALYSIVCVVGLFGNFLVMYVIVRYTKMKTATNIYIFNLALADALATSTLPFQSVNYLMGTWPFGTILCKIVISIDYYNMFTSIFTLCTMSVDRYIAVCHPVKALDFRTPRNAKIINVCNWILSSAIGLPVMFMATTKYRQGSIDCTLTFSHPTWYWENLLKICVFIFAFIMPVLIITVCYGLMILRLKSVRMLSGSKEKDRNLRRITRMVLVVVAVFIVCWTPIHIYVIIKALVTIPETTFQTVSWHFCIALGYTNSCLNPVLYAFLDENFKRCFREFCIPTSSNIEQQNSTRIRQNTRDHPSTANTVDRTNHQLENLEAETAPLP", "assay": "GFET sensor response (Dirac voltage shift) of mu receptor protein-functionalized graphene transistors", "conditions": "10 micrograms/mL, negative control of specificity, 15-25 devices", "quoted_text": "First, the graphene was functionalized through the use of a diazonium salt. The carboxylate group was then activated by EDC and stabilized with NHS. Mu receptor protein displaced the NHS to form an amide bond.\nThe graphene transistor was functionalized by incubation at 55° C. in a water solution of carboxylated diazonium salt (2.0 mg/mL in DI water). Carboxylic acid groups from the diazonium functionalization were activated and stabilized with 1-ethyl-3-[3-dimethylaminopropyl]carbodiimide hydrochloride/sulfo-Nhydroxysuccinimide (EDC/NHS) at an EDC concentration of 9 mg/15 mL MES buffer and NHS concentration of 20 mg/15 mL MES buffer. NHS molecules were displaced by Mu receptor proteins (3 micrograms/mL) in buffer (40 microM NaPi/260 microM NaCl/0.00004% SDS/10 microM 2-ME/pH 7.0), forming a covalent amide bond between the protein and the graphene. The devices were then electrically characterized and then their sensitivity to opioid exposure was measured.\nThe source-drain current value is at a minimum at the gate voltage value at which conductance is at a minimum. The increase in Dirac voltage was defined as the sensing response (change in signal, i.e. electronic characteristic) for this ligand. […] The inset is a magnified view of this shift in the Dirac voltage.\nEach concentration was tested against 15-30 devices. […]"}, "[2]": {"assay": "Thermostability by circular dichroism", "conditions": "5 mM sodium phosphate; for melting point (CD thermostability): 0.01% SDS, pH=7.0", "experimental": "The secondary structure of the water-soluble variant was determined through circular dichroism (CD). Circular dichroism (CD) spectra were recorded by using CD Spectrometer (Chirascan, AppliedPhotophysics Limited, Leatherhead, United Kingdom) with a scan speed of 1 nm/s and 1 mm path length. Corresponding blanks were used for calibration for each assay and subtracted from raw data. Two data sets were recorded and averaged to increase the signal-to-noise ratio. The CDNN CD spectra deconvolution software was utilized to determine the secondary structure content of the proteins. […] Absorbance was maintained lower than 1.0 to ensure sufficient light transmission. The temperature-dependence curve was plotted using GraphPad Prism® (version 5, GraphPad Software, Inc. La Jolla)."}, "[3]": {"assay": "Effects of denaturant (urea) and reducing agent (2-ME) by CD and intrinsic tryptophan fluorescence", "format": "physicochemical", "conditions": "normalized to no denaturant", "experimental": "CD and intrinsic tryptophan fluorescence were used to probe disulfide bond formation in the water-soluble variant. […] Even in 8 M urea, the protein retains some helical structure (Table 2). Upon addition of 2-ME, both the molar ellipticity and fluorescence further decreased, becoming more pronounced at the higher concentration of the reducing agent (200 mM). Thus the presence of an intramolecular disulfide bond is corroborated in the case of wsMUR-TM."}, "[4]": {"tested_on": "human μ opioid receptor expressed in HEK293 cells", "assay": "Competitive TR-FRET (HTRF) binding competition assay with native MUR and naltrexone-derived fluorescent antagonist", "conditions": "methodology described for FIG. 16", "from_the_text": "FIG. 16. […] Data is used to calculate HTRF ratios, and represent the mean±standard error of mean of quadruplicates. ΔF is used for the comparison of different runs of the same assay which reflects the signal to background of the assay. ΔF=[(Ratiosample−Ratiobackgroud)/Ratiobackgroud](%).\nA recently developed methodology which uses a fluorescently labeled ligand and the native MUR was used to investigate the ligand-binding capabilities of the water-soluble receptors."}, "[5]": {"conditions": "pH 7.0 + 0.1% SDS, expressed in yeast system"}}, "data": [{"molecule": "Native MUR: native human μ receptor expressed in yeast system, in 0.1% SDS [reference compound]", "values": [{"measurement": "Helix content (CD 205-260 nm)", "setting": "[1]; [5]", "result": 40.6, "unit": "%"}, {"measurement": "Others content (CD 205-260 nm)", "setting": "[1]; [5]", "result": 40.5, "unit": "%"}, {"measurement": "Turn content (CD 205-260 nm)", "setting": "[1]; [5]", "result": 18.9, "unit": "%"}]}, {"molecule": "O=C1CC[C@@]2(O)[C@H]3Cc4ccc(O)c5c4[C@@]2(CCN3CC2CC2)[C@H]1O5", "note": "[naltrexone]", "values": [{"measurement": "Average 2D peak position after analyte", "setting": "mu-receptor protein; 10 ng/mL", "result": "2683.19 ± 0.20"}, {"measurement": "Average G peak position after analyte", "setting": "mu-receptor protein; 10 ng/mL", "result": "1591.61 ± 0.13"}, {"measurement": "Average 2D peak position after analyte", "setting": "mu-receptor protein; 10 micrograms/mL", "result": "2685.83 ± 0.26"}, {"measurement": "Average G peak position after analyte", "setting": "mu-receptor protein; 10 micrograms/mL", "result": "1594.39 ± 0.15"}]}, {"molecule": "CCOC(=O)c1ncn2c1CN(C)C(=O)c1cc(F)ccc1-2", "note": "[Flumazenil]", "values": [{"measurement": "sensor response (Dirac voltage shift)", "setting": "mu receptor protein", "result": "−0.2±0.4", "unit": "V"}]}, {"molecule": "wsMUR-TM: transmembrane-only water-soluble human mu receptor variant (protein) SMITAIKIHEEYKKVCEEGKKGNKLVMEVIVRYTKMKTATNIYIFNLAKADALAESTLPFQSVNKLMGTWPFGTILCKKVISIDYYNMFTSIFTLCTMSVDRYIAVCHPVKALDFRTPRNAKEENEKNWKLSSEIGKPVEKKATTKYRQGSIDCTLTFSHPTWYWEDKLKDEVFKKAFEEPVKKIKECYGLMILRLKSVRMLSGSKEKDRNLRRITRMVLVVVEVFIKCWTEIHKYVKEGKLVTIPETTFQTVSWHECIAKGYKNSCENPKLYEELDENFKRCFREFC", "values": [{"measurement": "Helix content (CD 205-260 nm)", "setting": "[1]; pH 7.0 in NaHPO4", "result": 48.0, "unit": "%"}, {"measurement": "Others content (CD 205-260 nm)", "setting": "[1]; pH 7.0 in NaHPO4", "result": 37.4, "unit": "%"}, {"measurement": "Turn content (CD 205-260 nm)", "setting": "[1]; pH 7.0 in NaHPO4", "result": 14.6, "unit": "%"}, {"measurement": "temperature at which ellipticity (222 nm) starts to be lost significantly", "setting": "[2]; pH=7.0, 10 to 90° C.", "result": "~62", "unit": "°C"}, {"measurement": "melting point (CD thermostability)", "setting": "[2]; absence of cholesterol", "result": 82.9, "unit": "°C"}, {"measurement": "melting point (CD thermostability)", "setting": "[2]; presence of cholesterol", "result": 89.3, "unit": "°C"}, {"measurement": "Fluorescence Peak Intensity (%; 300-350 nm)", "setting": "[3]; Urea (8M) 2-ME (25 mM)", "result": 23.9, "unit": "%"}, {"measurement": "Molar Ellipticity (%; 222 nm)", "setting": "[3]; Urea (8M) 2-ME (25 mM)", "result": 25.1, "unit": "%"}, {"measurement": "Fluorescence Peak Intensity (%; 300-350 nm)", "setting": "[3]; Urea (8M) 2-ME (200 mM)", "result": 4.5, "unit": "%"}, {"measurement": "Molar Ellipticity (%; 222 nm)", "setting": "[3]; Urea (8M) 2-ME (200 mM)", "result": 0.0, "unit": "%"}, {"measurement": "Fluorescence Peak Intensity (%; 300-350 nm)", "setting": "[3]; Urea (8M)", "result": 28.4, "unit": "%"}, {"measurement": "Molar Ellipticity (%; 222 nm)", "setting": "[3]; Urea (8M)", "result": 40.0, "unit": "%"}]}, {"molecule": "wsMUR-TM+7mut: second wsMUR recombinant protein (protein) SMITAIKILEEYKKVCEEGRKGNKLVMEVIVRYTKMKTATNIYIFNLAKADALAESTLPFQSVNKLMGTWPFGTILCKKVISIDYYNMFTSIFTLCTMSVDRYIAVCHPVKALDFRTPRNAKEHNEKNWKLSSEIGKPVEKRATTKYRQGSIDCTLTFSHPTWYWEDKLKDTVFKKAFEEPVKVIKECYGLMILRLKSVRMLSGSKEKDRNLRRITRMVLVVVEVFIKCWTEIHKYVKEGKL", "values": [{"measurement": "binding activity / affinity with naltrexone", "setting": "[4]", "result": "binding activity was also observed"}]}]}
